B1: His8-TEV-GABARAP (1 to 117) (natural protein)
chain: MKFVYKEEHPFEKRRSEGEKIRKKYPDRVPVIVEKAPKARIGDLDKKKYLVPSDLTVGQFYFLIRKRIHLRAEDALFFFVNNVIPPTSATMGQLYQEHHEEDFFLYIAYSDESVYGL
B2: GST-PreScission-p62 FIR 4P (domain or fragment)
chain: MESDNCSGGDDDWTHLSSKEVDPETGELQSLQMPESEGPEELDPEQEGPTGLKEA

Like-named read-outs stand apart in the source and are kept apart here.

Common to all, as to experiment: SPR
The target of assay [1] is T1, Biotinylated FLCN-8xGlycine-AviTag/FNIP2 (human, UniProt Q8NFG4;Q9P278, biotin on the AviTag).
The target of assay [2] is T1, Biotinylated FLCN-8xGlycine-AviTag/FNIP2. The source holds these as a separate data set.
The target in another assay is His8-TEV-LC3B (1 to 125) (human, UniProt Q9GZQ8 1-120).
For assay [3], the target named is B1.

With B1, the Kd in assay [1] turned out to be 0.3 ± 0.018 nM; in assay [2], 0.071 ± 0.01 nM.
As to B2, the Kd turned out to be 820 ± 40 nM with His8-TEV-LC3B (1 to 125) and 670 ± 80 nM in assay [3].

The record behind these values is PMC10938568 (Science Advances, 2021).
